# Laboratory results from US10428140B2, “Anti-EphA4 antibody” (EISAI R&D MANAGEMENT CO., LTD., priority 2015, dated 2019).
# Where a chain is given by its changes, count along the chain named.
# T1: human EphA7 (Homo sapiens, UniProt Q15375)
# T1 construct: a protein of the extracellular region of each human Eph receptor fused with the SEAP protein and the His tag; made in house; host or cells: Expi293F cells (culture supernatant)
# T1 sequence (Q15375 28-555 limits assumed): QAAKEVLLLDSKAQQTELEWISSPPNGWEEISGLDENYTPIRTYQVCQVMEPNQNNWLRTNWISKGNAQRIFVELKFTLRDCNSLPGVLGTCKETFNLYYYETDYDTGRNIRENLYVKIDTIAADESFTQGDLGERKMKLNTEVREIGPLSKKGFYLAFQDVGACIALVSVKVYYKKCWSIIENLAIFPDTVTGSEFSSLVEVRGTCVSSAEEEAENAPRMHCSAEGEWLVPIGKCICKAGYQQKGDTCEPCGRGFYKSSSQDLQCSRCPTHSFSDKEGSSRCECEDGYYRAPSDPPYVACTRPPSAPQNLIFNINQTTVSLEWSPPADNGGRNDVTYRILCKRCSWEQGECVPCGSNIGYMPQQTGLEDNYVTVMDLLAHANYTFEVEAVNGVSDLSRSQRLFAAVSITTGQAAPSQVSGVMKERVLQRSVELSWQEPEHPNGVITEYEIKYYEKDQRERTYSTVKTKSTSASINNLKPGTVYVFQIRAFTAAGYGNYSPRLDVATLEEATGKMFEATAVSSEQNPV
# T2: human EphA8 (Homo sapiens, UniProt P29322)
# T2 construct: a protein of the extracellular region of each human Eph receptor fused with the SEAP protein and the His tag; made in house; host or cells: Expi293F cells (culture supernatant)
# T2 sequence (P29322 28-542 limits assumed): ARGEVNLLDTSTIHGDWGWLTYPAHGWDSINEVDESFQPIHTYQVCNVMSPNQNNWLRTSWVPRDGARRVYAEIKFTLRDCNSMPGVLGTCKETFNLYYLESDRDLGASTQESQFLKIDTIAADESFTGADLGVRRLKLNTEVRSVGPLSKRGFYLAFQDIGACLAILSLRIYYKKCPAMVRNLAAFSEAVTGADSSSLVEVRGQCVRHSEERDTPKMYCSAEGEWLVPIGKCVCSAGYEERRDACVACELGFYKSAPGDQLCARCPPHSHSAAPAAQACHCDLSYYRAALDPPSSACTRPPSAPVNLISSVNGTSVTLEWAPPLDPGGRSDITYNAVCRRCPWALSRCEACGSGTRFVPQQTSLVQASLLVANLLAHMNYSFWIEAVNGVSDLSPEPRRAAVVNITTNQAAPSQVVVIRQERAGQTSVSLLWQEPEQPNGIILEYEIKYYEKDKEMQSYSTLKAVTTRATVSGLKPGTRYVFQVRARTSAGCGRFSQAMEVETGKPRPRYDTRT
# T3: human EphA3 (Homo sapiens, UniProt P29320)
# T3 construct: a protein of the extracellular region of each human Eph receptor fused with the SEAP protein and the His tag; made in house; host or cells: Expi293F cells (culture supernatant)
# T3 sequence (P29320 21-541 limits assumed): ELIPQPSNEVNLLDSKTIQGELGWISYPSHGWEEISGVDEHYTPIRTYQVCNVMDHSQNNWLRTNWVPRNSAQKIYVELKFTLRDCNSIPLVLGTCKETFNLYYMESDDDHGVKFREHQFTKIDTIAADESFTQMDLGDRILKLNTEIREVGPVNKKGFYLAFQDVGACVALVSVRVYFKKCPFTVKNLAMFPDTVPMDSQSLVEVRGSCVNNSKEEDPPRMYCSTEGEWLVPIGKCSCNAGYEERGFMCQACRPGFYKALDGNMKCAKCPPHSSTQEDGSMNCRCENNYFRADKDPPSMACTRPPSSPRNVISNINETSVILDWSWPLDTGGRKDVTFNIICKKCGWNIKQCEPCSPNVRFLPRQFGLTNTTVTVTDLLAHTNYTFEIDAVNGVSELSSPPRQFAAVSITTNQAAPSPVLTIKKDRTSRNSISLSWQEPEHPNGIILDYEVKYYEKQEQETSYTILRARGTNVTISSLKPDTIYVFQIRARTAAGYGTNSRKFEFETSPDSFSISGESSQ
# B1: 142 (antibody, V domains shown)
# VH: QVQLVQSGSELKKPGASVKVSCKASGYTFTDYSMHWVRQAPGQGLKWMGWINTETGEPTYADDFKGRFVFSLDTSVSTAYLQISSLKAEDTAVYYCARIPLYYYGSRYWYFDVWGQGTTVTVSS
# VL: DIQMTQSPSSLSASVGDRVTITCRASENIYRNLAWYQQKPGKAPKLLVYAATNLADGVPSRFSGSGSGTDYTLTISSLQPEDFATYYCQHFWGTPWTFGQGTKVEIK
# modifications: synthetic humanized antibody heavy chain variable region sequence; synthetic humanized antibody light chain variable region sequence
# B2: 153 (antibody, V domains shown)
# VH: B1 VH with D62Q, D63G, K65T
# VL: B1 VL with V48L, P80S
# modifications: synthetic humanized antibody heavy chain variable region sequence; synthetic humanized antibody light chain variable region sequence
# B3: 154 (antibody, V domains shown)
# VH: B1 VH with K46E
# VL: B1 VL with V48L, P80S
# modifications: synthetic humanized antibody heavy chain variable region sequence; synthetic humanized antibody light chain variable region sequence
# B4: 157 (antibody, V domains shown)
# VH: B1 VH with K46E, D62Q, D63G, K65T
# VL: B1 VL with K45Q, V48L
# modifications: synthetic humanized antibody heavy chain variable region sequence; synthetic humanized antibody light chain variable region sequence
# B5: 143 (antibody, V domains shown)
# VH: B1 VH with V2I
# VL: B1 VL
# modifications: synthetic humanized antibody heavy chain variable region sequence; synthetic humanized antibody light chain variable region sequence
# B6: 155 (antibody, V domains shown)
# VH: B1 VH with V2I
# VL: B1 VL with V48L, P80S
# modifications: synthetic humanized antibody heavy chain variable region sequence; synthetic humanized antibody light chain variable region sequence
# B7: 151 (antibody, V domains shown)
# VH: B1 VH with V2I, D62Q, D63G, K65T
# VL: B1 VL with V48L, P80S
# modifications: synthetic humanized antibody heavy chain variable region sequence; synthetic humanized antibody light chain variable region sequence
# B8: 144 (antibody, V domains shown)
# VH: B1 VH with K46E
# VL: B1 VL with K45Q, V48L
# modifications: synthetic humanized antibody heavy chain variable region sequence; synthetic humanized antibody light chain variable region sequence
# B9: 152 (antibody, V domains shown)
# VH: B1 VH with K46E, D62Q, D63G, K65T
# VL: B1 VL with V48L, P80S
# modifications: synthetic humanized antibody heavy chain variable region sequence; synthetic humanized antibody light chain variable region sequence
# B10: 158 (antibody, V domains shown)
# VH: B1 VH with D62Q, D63G, K65T
# VL: B1 VL with K45Q, V48L
# modifications: synthetic humanized antibody heavy chain variable region sequence; synthetic humanized antibody light chain variable region sequence
# B11: 145 (antibody, V domains shown)
# VH: B1 VH
# VL: B1 VL with V48L, P80S
# modifications: synthetic humanized antibody heavy chain variable region sequence; synthetic humanized antibody light chain variable region sequence
# Biological target: T1, human EphA7
# Test: Selectivity ELISA of humanized antibodies for human Eph receptor
# Assay type: binding
# Details: coated protein 1 nM
# In short: (§1)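 Read-out is A450 after TMB development stopped with 1N H2SO4. Plates bore anti-His-captured human Eph extracellular region-SEAP-His proteins at 1 nM final, made in Expi293F cells. Humanized antibody binding ran 1 h at room temperature before HRP-labeled anti-IgG detection.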
row,Molecule,"hEphA7-SEAP-: absorbance at 450 nm, percentage with respect to hEphA4-SEAP-His as 100% [%]"
1,B1,5.5
2,B2,6.2
3,B3,6.3
4,B4,6.0
5,B5,5.8
6,B6,5.6
7,B7,6.8
8,B8,5.6
9,B9,5.7
10,B10,6.3
11,B11,6.3

# Biological target: T2, human EphA8
# Test: as above
# Assay type: binding
# Details: coated protein 1 nM
# In short: as §1
row,Molecule,"hEphA8-SEAP-: absorbance at 450 nm, percentage with respect to hEphA4-SEAP-His as 100% [%]"
1,B1,5.7
2,B2,6.1
3,B3,5.5
4,B4,6.0
5,B5,6.0
6,B6,5.5
7,B7,6.9
8,B8,5.8
9,B9,6.0
10,B10,6.4
11,B11,6.6

# Biological target: T3, human EphA3
# Test: as above
# Assay type: binding
# Details: coated protein 1 nM
# In short: as §1
row,Molecule,"hEphA3-SEAP-: absorbance at 450 nm, percentage with respect to hEphA4-SEAP-His as 100% [%]"
1,B1,5.5
2,B2,6.1
3,B3,6.2
4,B4,6.4
5,B5,5.6
6,B6,5.6
7,B7,6.9
8,B8,5.7
9,B9,5.8
10,B10,6.5
11,B11,6.6
